Binding signal data for 2 sequences are collected here from article PMC4189786.

In the data set the target is serum albumin (HSA in Results and figures; Methods state purchased bovine serum albumin, Sigma A7030) ((Methods: bovine)) (UniProt P02769). Kind of data set: tryptophan fluorescence quenching. To be noted: 6 uM albumin, off-target, 6 uM albumin in phosphate buffer (10 mM) pH 7.4, 37 C, excitation 290 nm, emission 300-400 nm, 90 s after each aptamer addition.
Sequence of serum albumin (HSA in Results and figures; Methods state purchased bovine serum albumin, Sigma A7030) ((Methods: bovine)) (P02769 25-607): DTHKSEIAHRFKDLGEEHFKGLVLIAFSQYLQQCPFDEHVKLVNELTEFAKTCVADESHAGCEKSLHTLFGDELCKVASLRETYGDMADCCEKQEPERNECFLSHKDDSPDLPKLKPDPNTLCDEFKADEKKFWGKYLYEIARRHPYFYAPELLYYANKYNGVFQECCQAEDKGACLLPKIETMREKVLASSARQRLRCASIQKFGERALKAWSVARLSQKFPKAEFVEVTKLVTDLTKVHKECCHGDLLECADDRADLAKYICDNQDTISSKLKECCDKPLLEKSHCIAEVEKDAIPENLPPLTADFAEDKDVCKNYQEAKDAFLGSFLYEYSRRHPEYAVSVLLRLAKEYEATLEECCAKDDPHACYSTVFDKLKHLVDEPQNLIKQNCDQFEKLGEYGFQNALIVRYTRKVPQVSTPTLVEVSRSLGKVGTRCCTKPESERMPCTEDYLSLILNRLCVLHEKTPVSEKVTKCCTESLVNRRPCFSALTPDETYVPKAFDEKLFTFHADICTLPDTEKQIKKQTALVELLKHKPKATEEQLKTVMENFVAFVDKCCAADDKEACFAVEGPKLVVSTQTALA

“ACTTTTGAATGTGGCAACAAATTCGACAGG [1.5 M Short]”: the binding signal (aptamer:HSA 1:10) was 9 % quenching and the binding signal (aptamer:HSA 1:100) stood at 1.5 % quenching.
The like results for “GGGAGACAAGAATAAACGCTCAAATGGACTTTTGAATGTGGCAACAAATTCGACAGGAGGCTCACAACAGGC [1.5 M Long]” were, in that order, 16 % quenching and 2.4 % quenching.
